# Results reported in publication PMC4931181.
# “And” between values parts separate entries of the source, which are not always exact repeats. Equal values may be shown once. Read-outs that look alike come from different tables or passages of the source.
# Key:
# [1] = tested on: H2A-H2B heterodimer (Xenopus laevis); experiment: EMSA
# [2] = tested on: H2A-H2B heterodimer;yNap1 (Xenopus laevis;Saccharomyces cerevisiae); experiment: EMSA
# [3] = target: yNap1_IF1 (G225D, S237D, T244D, D246R) (Saccharomyces cerevisiae) (UniProt P25293); experiment: native MS
# [4] = target: yNap1_IF1 (G225D, S237D, T244D, D246R) (Saccharomyces cerevisiae) (UniProt P25293); experiment: native MS; remark: listed apart in the source
Substance,Kd [1] [µM],Kd [2] [µM],stoichiometry N [3],stoichiometry N [4]
(H3-H4)2-DNA tetrasome on 147-bp 601 DNA,0.029,0.94,,
"yNap1_IF1 (G225D, S237D, T244D, D246R) (from UniProt P25293 1-417) (natural protein)",,,2,2 and 4
